In this data set the target is T1, Fc-CTL (mannose receptor CTLD4-7 fused to human IgG1 Fc) (Mus musculus, UniProt Q61830 Q61830:655-1212).
T1 chain: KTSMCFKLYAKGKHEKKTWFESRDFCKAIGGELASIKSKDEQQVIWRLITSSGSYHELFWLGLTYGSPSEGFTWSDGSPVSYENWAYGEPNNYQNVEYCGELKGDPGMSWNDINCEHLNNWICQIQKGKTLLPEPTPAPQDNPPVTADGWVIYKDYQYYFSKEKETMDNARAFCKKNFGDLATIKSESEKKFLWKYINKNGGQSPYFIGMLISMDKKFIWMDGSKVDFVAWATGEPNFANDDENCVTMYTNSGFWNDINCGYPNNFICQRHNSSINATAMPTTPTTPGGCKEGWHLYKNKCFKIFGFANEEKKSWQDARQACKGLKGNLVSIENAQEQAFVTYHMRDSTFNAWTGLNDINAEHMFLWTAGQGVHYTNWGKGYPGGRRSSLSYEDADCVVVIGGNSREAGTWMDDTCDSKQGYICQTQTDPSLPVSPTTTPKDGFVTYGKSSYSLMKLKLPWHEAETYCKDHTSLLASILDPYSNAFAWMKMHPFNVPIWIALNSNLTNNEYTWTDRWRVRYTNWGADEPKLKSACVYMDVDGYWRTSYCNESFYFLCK
In words: filter; 500 nM protein, PBS, 1 mM MgCl2, 1 mM CaCl2, BSA, 37 C; more than 2-fold higher than Fc-FN. Particulars: tags: human IgG1 Fc fusion; expressed in HEK293T from pIgplus-CTLD4-7; protein G purified; chain copies: 2; label: 5'-32P or 5'-ATTO 647N. On the procedure: Representative DNA sequences of each motif family (FIG. 14A-B), namely CTL #5, CTL #9, CTL #6 and CTL #16, and unique sequences CTL #1, #2, #3, #14 and #18 (FIG. 39) were chosen for further analysis. Therefore, their binding ability to Fc-CTL, Fc-FN and the IgG1 Fc protein tag was monitored by radioactive filter retention assay (FIG. 15). DNA was end labeled with ³²P and mixed with the corresponding proteins at a concentration of 500 nM. The mixtures were incubated in selection buffer for 30 minutes at 37° C. and applied on a nitrocellulose membrane. Finally, the amount of bound DNA was detected by autoradiography.

B1: CTL #5 (ssDNA)
DNA: GCTGTGTGACTCCTGCAATGCAATCTAGCTGACAATGGGGGGGAAGAATGTGGGTGGGTGGCAGCTGTATCTTGTCTCC
B1: the binding result is listed as “binds”.
